Experimental data as given in paper PMC4682653.

System: UvrY-His6 phosphorylated (UvrY-P) (Escherichia coli MG1655)
Assay: EMSA
Conditions: in vitro phosphorylated; 20 mM Tris-HCl pH 7.5, 10% glycerol, 50 mM KCl, 3 mM MgCl2, 1 mM DTT, 100 ug/mL BSA, 0.5 nM DNA, 30 min at 37 C (Fig 3 legend: room temperature)

Substance	binding signal (fold affinity vs non-phosphorylated UvrY)
csrB EMSA probe (-246 to +49)	2
csrC EMSA probe (-247 to +56)	2
